# Columns and labels:
# [1] = target: GnRHR-DesK191 (human) (UniProt P30968)
# [2] = target: GnRHR-DesK191 (human) (UniProt P30968); assay: radioligand binding; transfected MDA-MB-231 cells in 24-well plates, 90 minutes at room temperature with [125I]-Buserelin in the presence or absence of excess (10 uM) unlabeled Buserelin; cells washed, solubilized and counted; relative affinities given as Ki
# [3] = target: Wild-type gonadotropin-releasing hormone receptor (human) (UniProt P30968); assay: as above
# [4] = target: endogenous GnRHR of MDA-MB-231 cells (human (endogenous in MDA-MB-231)) (UniProt P30968); assay: as above
"Buserelin-stimulated inositol phosphate (IP) production in transfected MDA-MB-231 cells, relative to WT GnRHR (% of WT levels) [1]",Ki [2],Ki [3],Ki [4],"[125I]-Buserelin binding, percent of WT levels (% of WT levels) [2]",Substance
590,700 nM,500 nM,1030 nM,,Buserelin (peptide)
,,,,139,[125I]-Buserelin (peptide)

# — paper PMC3518142
